# Biological target: T1, NFluc-Pum2 (pumilio domain) (UniProt Q8TB72)
# T1 sequence: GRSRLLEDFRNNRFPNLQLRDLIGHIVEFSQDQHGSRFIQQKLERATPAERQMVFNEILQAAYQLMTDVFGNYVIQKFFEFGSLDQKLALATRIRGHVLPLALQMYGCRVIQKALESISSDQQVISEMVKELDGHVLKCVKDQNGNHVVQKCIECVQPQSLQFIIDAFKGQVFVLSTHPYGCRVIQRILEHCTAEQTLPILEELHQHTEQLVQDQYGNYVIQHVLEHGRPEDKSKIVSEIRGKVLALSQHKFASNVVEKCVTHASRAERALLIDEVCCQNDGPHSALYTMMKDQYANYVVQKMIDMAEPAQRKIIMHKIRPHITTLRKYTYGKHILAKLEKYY
# Conditions: ternary with CFluc-Ago
sequence,measurement,value
CAUGGUGUAUAUAGUCUUUUGAUAUAGCGGC / CUAUAUACACCAUGUU [Pum target RNA + Pum1 guide],activity (fold luminescence vs controls),3
